In article PMC3883112 (Cell reports, 2013):

Target: T1, GST-Pol32 (full length Pol32) (yeast (S. cerevisiae), UniProt P47110 1-350)
T1 sequence (looked up): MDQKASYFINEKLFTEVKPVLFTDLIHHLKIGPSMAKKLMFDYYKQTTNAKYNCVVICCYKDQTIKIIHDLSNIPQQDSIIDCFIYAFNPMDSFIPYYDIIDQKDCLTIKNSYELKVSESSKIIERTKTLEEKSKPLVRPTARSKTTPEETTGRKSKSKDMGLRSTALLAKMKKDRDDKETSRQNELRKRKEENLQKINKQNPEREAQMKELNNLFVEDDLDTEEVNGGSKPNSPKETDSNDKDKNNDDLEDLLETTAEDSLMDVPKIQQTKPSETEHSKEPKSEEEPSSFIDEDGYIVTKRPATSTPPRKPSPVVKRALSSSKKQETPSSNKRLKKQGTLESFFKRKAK
Assay: pull-down

binding result: binds
B1: Rev7 used in the GST pull-down (natural protein, yeast (S. cerevisiae), UniProt P38927 1-245, looked up)
chain: MNRWVEKWLRVYLKCYINLILFYRNVYPPQSFDYTTYQSFNLPQFVPINRHPALIDYIEELILDVLSKLTHVYRFSICIINKKNDLCIEKYVLDFSELQHVDKDDQIITETEVFDEFRSSLNSLIMHLEKLPKVNDDTITFEAVINAIELELGHKLDRNRRVDSLEEKAEIERDSNWVKCQEDENLPDNNGFQPPKIKLTSLVGSDVGPLIIHQFSEKLISGDDKILNGVYSQYEEGESIFGSLF
